Assay results reported in paper PMC3835790, “Statistical Experimental Design Guided Optimization of a One-Pot Biphasic Multienzyme Total Synthesis of Amorpha-4,11-diene” (PLoS ONE, 2013).

Test system: CC(C)=CCC/C(C)=C/CC/C(C)=C/CO[P@@](=O)(O)OP(=O)(O)O
Experiment: purified protein
Details: 100 mM Tris/HCl pH 7.4, 30°C, substrate not printed in the table row, FPP from the pathway

Sequence of amorpha-4,11-diene synthase (Ads) (Artemisia annua) (chain, as listed by the source): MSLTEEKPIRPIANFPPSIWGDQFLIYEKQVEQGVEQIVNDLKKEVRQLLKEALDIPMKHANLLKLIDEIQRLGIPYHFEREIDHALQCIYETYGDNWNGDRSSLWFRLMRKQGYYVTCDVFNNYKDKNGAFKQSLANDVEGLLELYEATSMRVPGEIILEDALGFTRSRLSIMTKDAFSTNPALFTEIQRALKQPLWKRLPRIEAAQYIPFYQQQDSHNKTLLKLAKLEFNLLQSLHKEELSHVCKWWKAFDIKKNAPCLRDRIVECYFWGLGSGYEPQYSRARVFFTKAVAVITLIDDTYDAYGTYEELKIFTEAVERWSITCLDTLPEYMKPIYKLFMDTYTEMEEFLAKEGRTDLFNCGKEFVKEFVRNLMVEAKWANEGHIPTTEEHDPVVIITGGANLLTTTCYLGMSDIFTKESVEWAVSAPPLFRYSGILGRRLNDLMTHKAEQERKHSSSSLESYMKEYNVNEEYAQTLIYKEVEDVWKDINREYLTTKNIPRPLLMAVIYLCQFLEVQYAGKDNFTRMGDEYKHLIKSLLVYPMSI

amorpha-4,11-diene synthase (Ads) (Artemisia annua)
Km: 43.72 ± 10.4 µM | kcat: 0.05 s⁻¹
